The record followed here is article PMC12744750 (Plant Communications, 2025).

T1: ETR1 1-307 (Arabidopsis thaliana)
T1 chain: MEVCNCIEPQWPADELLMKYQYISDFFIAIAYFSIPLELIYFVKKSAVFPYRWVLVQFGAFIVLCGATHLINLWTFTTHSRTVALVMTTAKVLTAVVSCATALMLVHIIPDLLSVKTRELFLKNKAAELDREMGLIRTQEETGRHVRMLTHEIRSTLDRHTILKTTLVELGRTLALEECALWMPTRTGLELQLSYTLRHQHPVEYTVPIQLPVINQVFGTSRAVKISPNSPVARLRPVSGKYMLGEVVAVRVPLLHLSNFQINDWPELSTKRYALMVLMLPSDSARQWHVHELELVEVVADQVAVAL

T2: ETR1 1-598 (Arabidopsis thaliana)
T2 chain: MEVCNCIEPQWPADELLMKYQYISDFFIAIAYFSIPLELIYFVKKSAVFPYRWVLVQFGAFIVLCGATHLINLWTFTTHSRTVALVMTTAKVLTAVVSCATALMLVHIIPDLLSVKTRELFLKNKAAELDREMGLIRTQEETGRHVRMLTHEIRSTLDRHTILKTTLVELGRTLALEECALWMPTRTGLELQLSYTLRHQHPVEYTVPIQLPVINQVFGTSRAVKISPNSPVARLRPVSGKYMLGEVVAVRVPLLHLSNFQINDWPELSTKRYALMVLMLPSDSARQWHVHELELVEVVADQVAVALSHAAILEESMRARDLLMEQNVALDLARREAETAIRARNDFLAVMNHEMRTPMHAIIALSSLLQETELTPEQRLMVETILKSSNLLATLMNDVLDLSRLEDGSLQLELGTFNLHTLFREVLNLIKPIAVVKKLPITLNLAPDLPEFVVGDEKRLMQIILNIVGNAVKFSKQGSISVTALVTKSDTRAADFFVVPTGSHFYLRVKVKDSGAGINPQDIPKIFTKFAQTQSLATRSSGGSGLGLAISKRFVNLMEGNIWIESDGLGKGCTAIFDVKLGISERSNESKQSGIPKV

T3: ETR1 1-407 (Arabidopsis thaliana)
T3 chain: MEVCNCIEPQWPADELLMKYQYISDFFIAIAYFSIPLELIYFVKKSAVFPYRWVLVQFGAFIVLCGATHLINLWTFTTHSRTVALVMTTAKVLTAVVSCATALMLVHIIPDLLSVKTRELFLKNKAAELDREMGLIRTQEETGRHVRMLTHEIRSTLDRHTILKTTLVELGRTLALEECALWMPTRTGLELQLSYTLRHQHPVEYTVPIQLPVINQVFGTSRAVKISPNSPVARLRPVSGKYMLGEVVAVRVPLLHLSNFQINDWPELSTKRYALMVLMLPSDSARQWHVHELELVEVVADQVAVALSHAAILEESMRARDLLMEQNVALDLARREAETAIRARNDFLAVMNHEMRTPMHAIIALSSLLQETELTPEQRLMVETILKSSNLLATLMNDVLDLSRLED

T4: ETR1 1-157 (Arabidopsis thaliana)
T4 chain: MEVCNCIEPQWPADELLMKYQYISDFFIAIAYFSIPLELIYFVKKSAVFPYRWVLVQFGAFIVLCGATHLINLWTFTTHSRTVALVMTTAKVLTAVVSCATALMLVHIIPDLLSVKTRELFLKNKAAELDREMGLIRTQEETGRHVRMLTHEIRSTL

B1: PLS linked to a C-terminal GFP (PLS:GFP), pro35S::PLS:GFP (peptide, UniProt Q8LLV8 1-36, looked up)
chain: MKPRLCFNFRRRSISPCYISISYLLVAKLFKLFKIH-{GFP}
modifications: cysteine pairing not given here
notes: POLARIS (PLS) peptide of Arabidopsis thaliana, gene AT4G39403; the PLS gene without the stop codon (printed as 105 bp) in pEarlyGate103; source: N. benthamiana leaves, transient expression by Agrobacterium infiltration, in protein extract; not shown: GFP, C-terminal, kept
B2: ETR1 with a C-terminal HA tag (ETR1:HA), pro35S::ETR1:HA (receptor, Arabidopsis, UniProt P49333 1-738, looked up)
chain: MEVCNCIEPQWPADELLMKYQYISDFFIAIAYFSIPLELIYFVKKSAVFPYRWVLVQFGAFIVLCGATHLINLWTFTTHSRTVALVMTTAKVLTAVVSCATALMLVHIIPDLLSVKTRELFLKNKAAELDREMGLIRTQEETGRHVRMLTHEIRSTLDRHTILKTTLVELGRTLALEECALWMPTRTGLELQLSYTLRHQHPVEYTVPIQLPVINQVFGTSRAVKISPNSPVARLRPVSGKYMLGEVVAVRVPLLHLSNFQINDWPELSTKRYALMVLMLPSDSARQWHVHELELVEVVADQVAVALSHAAILEESMRARDLLMEQNVALDLARREAETAIRARNDFLAVMNHEMRTPMHAIIALSSLLQETELTPEQRLMVETILKSSNLLATLMNDVLDLSRLEDGSLQLELGTFNLHTLFREVLNLIKPIAVVKKLPITLNLAPDLPEFVVGDEKRLMQIILNIVGNAVKFSKQGSISVTALVTKSDTRAADFFVVPTGSHFYLRVKVKDSGAGINPQDIPKIFTKFAQTQSLATRSSGGSGLGLAISKRFVNLMEGNIWIESDGLGKGCTAIFDVKLGISERSNESKQSGIPKVPAIPRHSNFTGLKVLVMDENGVSRMVTKGLLVHLGCEVTTVSSNEECLRVVSHEHKVVFMDVCMPGVENYQIALRIHEKFTKQRHQRPLLVALSGNTDKSTKEKCMSFGLDGVLLKPVSLDNIRDVLSDLLEPRVLYEGM
notes: the ETR1 cDNA in pEarlyGate301; also called ETHYLENE RESPONSE 1; source: N. benthamiana leaves, transient expression by Agrobacterium infiltration, in protein extract; not shown: HA, C-terminal, kept

Ends that are not written are not given here.

The subject of one experiment is pPLS::GUS. In words: pPLS::GUS expression in root tips after hormone treatment. It counts as in vivo, Arabidopsis. To be noted: 10 µM ACC plus 10 μM 2,4-D. From the text: Figure S15. The link between auxi n and et hyl ene si gnal l i ng ef f ect s on PLS transcription, and downstream ef f ect s on et hyl ene responses.
(A) Ant agoni sm between auxi n and et hyl ene on PLS expressi on.
Auxin posit ively regulates PLS gene transcription, whi l e ACC (ethylene pr ecur sor ) […]
Lef t upper panel: pPLS::GUS […]
expr ession in the Arabidopsis root tip under standard gr owt h conditions. Lef t lower panel: pPLS::PLS:GFP expr ession in the Arabidopsis root tip under standard gr owt h conditions.
Ri ght panel: pPLS::GUS expr ession in root tips treated wi t h 10 μM 2,4-D, showing ect opic […]
10 μM 2,4-D plus 10 μm ACC, showing the ant agonism of the inductive eff ect of 2,4-D on PLS::GUS expr ession. Images ar e representative of 10 independently gr own roots. […]

A further experiment concerns pPLS::PLS:GFP. The experiment can be described thus: PLS:GFP fluorescence in root tip after ACC treatment. It counts as in vivo, Arabidopsis. As to conditions: 0, 1 or 10 μM ACC, 2 or 24 hours, n = 17. An excerpt: Figur e S15. The link between auxin and ethylene signalling effects on PLS transcription, and downstr eam effects on […]
in the root tip after ACC treatment. […]
Laser settings were mai nt ai ned at 21% 488 nm 20 mW, 970 V gain.
Images are representative of 10 independetly grown roots. Scale bars […]
Lower panel: Quanti fi cati on of PLS-GFP fluorescence after ACC treatment, detected in seedlings expressing the pPLS::PLS:GFP construct. Seedling root tips at seven d.a.g were imaged by CLSM after treatment with 0, 1 or 10 μM ACC for either 2 or 24 hours.
Fl uorescence intensity in each root was measured using ImageJ and the mean intensity for each treatment was calculated. Error bars show
± 1 standard error, n = 17.

Experiment [1] addresses B2. In words: co-IP; anti-HA beads on protein extract of N. benthamiana leaves co-expressing ETR1:HA and PLS:GFP or GFP, 3 days after infiltration; blot with anti-GFP; with 0.5 μM CuSO4 or 2 mM EDTA added to the extract. To be noted: partners not purified.
Experiment [2] deals with B1. The experiment can be described thus: co-IP; anti-GFP beads on protein extract of N. benthamiana leaves co-expressing PLS:GFP and ETR1:HA; blot with anti-HA; with or without EDTA. As to conditions: partners not purified.
For the next experiment, the target named is T1, ETR1 1-307. In words: MST.
A further experiment addresses T2, ETR1 1-598. In words: MST.
The next experiment has as its target T3, ETR1 1-407. The experiment can be described thus: MST.
Another experiment has as its target T4, ETR1 1-157. In words: MST.

Regarding `NC1(C(=O)O)CC1` [ACC, 1-aminocyclopropane-1-carboxylic acid], the “effect on auxin-induced PLS expression” value in the experiment on pPLS::GUS is on record as “ant agonizes the inductive eff ect s of auxin”. In the experiment with pPLS::PLS:GFP, the “expression of PLS:GFP in root tip” value is “downr egulated”.
As to B1, in experiment [1], the “fold co-precipitated with 0.5 μM copper sulfate against 2 mM EDTA” value was roughly 3 fold.
B2: in experiment [2], the “fold co-precipitated with 0.5 μM copper sulfate against 2 mM EDTA” value was roughly 3 fold.
In general, Kd refers to the equilibrium constant for the complex coming apart. Regarding MKPRLCFNFRRRSISPCYISISYLLVAKLFKLFKIH (cysteine pairing not given here; also: fluorescently labelled) [synthetic full-length POLARIS (PLS) peptide, PLS(FL)], the Kd with ETR1 1-307 came to 1780 nM; in the experiment with ETR1 1-598, 2920 nM; in the experiment with ETR1 1-407, 1650 nM; with ETR1 1-157 it was 1520 nM.
